{
  "source": "patent US7425333B2",
  "about": "“Hypoallergenic allergy vaccines based on the timothy grass pollen allergen Phl p 7” (Biomay Produktions-und Handels-Aktiengesellschaft, priority 2002, dated 2008)",
  "molecules": {"B1": {"name": "Phl p 7 wild type: recombinantly produced wild type timothy grass pollen allergen Phl p 7, amino acid sequence SEQ ID NO:1 (protein)", "chain": "MADDMERIFKRFDTNGDGKISLSELTDALRTLGSTSADEVQRMMAEIDTDGDGFIDFNEFISFCNANPGLMKDVAKVF", "modifications": "Phleum pratense"}, "B2": {"name": "M1.6: Phl p 7-derived mutant, SEQ ID NO:4: 24E→24A (first EF-hand); 59E→59A (second EF-hand) (protein)", "chain": "MADDMERIFKRFDTNGDGKISLSALTDALRTLGSTSADEVQRMMAEIDTDGDGFIDFNAFISFCNANPGLMKDVAKVF"}, "B3": {"name": "M2A: Phl p 7-derived mutant, SEQ ID NO:5: 17D→A, 24E→24A; 59E→59A (protein)", "chain": "MADDMERIFKRFDTNGAGKISLSALTDALRTLGSTSADEVQRMMAEIDTDGDGFIDFNAFISFCNANPGLMKDVAKVF"}, "B4": {"name": "M4: Phl p 7-derived mutant, SEQ ID NO:6: 17D→A, 24E→24A; 52D→52A, 59E→59A (protein)", "chain": "MADDMERIFKRFDTNGAGKISLSALTDALRTLGSTSADEVQRMMAEIDTDGAGFIDFNAFISFCNANPGLMKDVAKVF"}},
  "key": {"[1]": {"tested_on": "timothy grass pollen allergic patients and a non-atopic individual", "assay": "Skin prick testing (SPT), immediate type skin reactions", "assay_type": "in vivo, human", "conditions": "for mean wheal diameter: 8 μg/ml, timothy grass pollen allergic patients, 20 minutes; for skin reactions in the non-allergic individual: non-allergic individual (#4)", "method": "The in vivo allergenic activity of the peptides and the mutant was studied by skin prick testing (SPT) in 3 timothy grass pollen allergic patients and a non-atopic individual. SPTs were performed on the individuals' forearms. Twenty microliter aliquots containing 2 concentrations of complete rPhl p 7 or Phl p 7-derived mutant M4 (2 μg/ml, 8 μg/ml) as well as two concentrations of Phl p 7-derived peptides (1 μg/ml m, 4 μg/ml ) were applied. In addition, standardized skin prick solutions (timothy grass pollen extract and histamine) (Allergopharma, Reinbeck, Germany) were tested. Reactions were recorded 20 minutes after SPT by photography and by transferring the ballpoint pen-surrounded wheal area with a scotch tape to paper. The mean wheal diameter (Dm) was calculated by measuring the maximal longitudinal and transversal diameter and dividing their sum by 2."}, "[2]": {"assay": "Secondary structure analysis by far-UV CD", "assay_type": "physicochemical", "conditions": "for secondary structure (far-UV CD spectra): 20° C., 0.1 cm cell", "method": "CD measurements were carried out on a Jasco J-715 spectropolarimeter using a 0.1 cm pathlength cell equilibrated at 20° C. Spectra were recorded with 0.5 nm resolution at a scan speed of 100 nm/min and resulted from averaging 3 scans. The final spectra were baseline-corrected by subtracting the corresponding MilliQ spectra obtained under identical conditions. Results were fitted with the secondary structure estimation program J-700."}, "Solubility observation": {"assay": "Solubility observation", "assay_type": "physicochemical"}, "[3]": {"tested_on": "basophils of a timothy grass pollen allergic individual", "assay": "Basophil histamine release", "assay_type": "cell-based, human", "conditions": "granulocytes of one allergic individual; for concentration of maximum histamine release: 10^−6-10 μg/ml tested", "method": "FIG. 3A, B. Induction of histamine release from basophils of a timothy grass pollen allergic patient. Granulocytes of a timothy grass pollen allergic patient were incubated with various concentrations (x-axis) of rPhl p 7 wild type (P7), Phl p 7-derived peptides (P1, P2), Phl p 7-derived mutant (M4) or another antigen (Hom s 4) (FIG. 3A).\nGranulocytes were isolated from heparinized blood samples of a timothy grass pollen allergic individual by dextran sedimentation. Cells were incubated with increasing concentrations (10^−6-10 μg/ml) of each peptide or the mutant, and, for control purposes, with rPhl p 7 wild type. Histamine released in the cell-free culture supernatant was measured by radioimmunoassay (Immunotech, Marseille, France). Total histamine was determined after freezing and thawing of the cells."}, "[4]": {"tested_on": "serum IgE of Phl p 7-sensitized grass pollen allergic patients", "assay": "IgE binding, dot blot with sera from ten timothy grass pollen allergic patients", "set-up": "species or system human", "text": "The polypeptides of the invention show reduced binding to IgE antibodies from timothy grass pollen allergic patients compared with wild type Phl p 7 (SEQ ID NO:1). […] Recombinant Phl p 7 consisting substantially of the amino acid sequence as shown in SEQ ID NO:1 can be used to determine the IgE binding activity of wild type Phl p 7. IgE binding of polypeptides may be determined by Western blot analysis or dot blot experiments using serum from a timothy grass pollen allergic patient. Timothy grass pollen allergy is diagnosed according to a case history indicative for timothy grass pollen allergy (i.e., seasonal symptoms of allergy during the flowering period of grasses), positive skin test reaction to timothy grass pollen allergens and/or the detection of specific IgE antibodies to timothy grass pollen allergens in serum. Dot blots can be quantified by measuring the amount of ^125I-labeled anti-human IgE antibodies by gamma counting as described (Niederberger et al. J. Allergy Clin. Immunol. 1998, 102, 579-591).\n(§1) Nitrocellulose blotted rPhl p 7 (lane Phl p 7) and rPhl p 7-derived mutants (lanes M1.6, M2A, M4) were probed with serum from a Phl p 7-sensitized grass pollen allergic patient. Bound IgE antibodies were detected with ^125I-labeled anti human IgE antibodies (FIG. 2A). Nitrocellulose dotted Phl p 7 and Phl p 7-derived mutants (M1.6, M2A, M4) as well the Phl p 7-derived peptides were probed with sera from ten Phl p 7-sensitized grass pollen allergic patients. Bound IgE antibodies were detected with ^125I-labeled anti human IgE antibodies (FIG. 2B).\n(§2) The IgE binding capacity of purified Phl p 7-derived mutants (M1.6, M2A, M4) was compared with that of Phl p 7 wild type by western blot analysis using serum from a timothy grass pollen allergic patient (FIG. 2A) as well as by dot blot experiments using sera from ten timothy grass pollen allergic patients (FIG. 2B).\nThe IgE binding capacity of Phl p 7-derived peptides was compared with that of Phl p 7 wild type by dot blot experiments using sera from ten timothy grass pollen allergic patients (FIG. 2B). For both peptides the IgE binding capacity was completely abolished, when tested with serum from ten timothy grass pollen allergic patients."}, "[5]": {"tested_on": "serum IgE of a Phl p 7-sensitized grass pollen allergic patient", "assay": "IgE binding, western blot with serum of a timothy grass pollen allergic patient", "set-up": "species or system human", "conditions": "serum from one timothy grass pollen allergic patient", "text": "as §1, §2"}, "rPhl p 7 wild type": {"tested_on": "rPhl p 7 wild type", "assay": "Rabbit immunization, IgG reactivity with Phl p 7 by dot blot", "assay_type": "in vivo", "conditions": "rabbits, 200 μg/injection, Freund's adjuvant; antiserum 1:500-1:2000"}, "recombinant Aln g 4": {"tested_on": "recombinant Aln g 4", "sequence (O81701 whole entry)": "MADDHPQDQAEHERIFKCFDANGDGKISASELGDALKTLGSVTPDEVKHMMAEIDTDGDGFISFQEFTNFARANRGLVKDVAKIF", "assay": "Rabbit immunization, antiserum reactivity with Aln g 4 by dot blot", "assay_type": "in vivo", "conditions": "rabbit antiserum diluted 1:1000"}},
  "data": [
    {"molecule": "NCCc1c[nH]cn1", "note": "[histamine, reference compound]", "values": [
      {"measurement": "skin reaction to positive control", "setting": "[1]; all individuals (3 allergic, 1 non-allergic)", "result": "All individuals reacted"}
    ]},
    {"molecule": "C-terminal peptide: synthetic peptide comprising the complete C-terminal calcium-binding domain of Phl p 7 (SEQ ID NO:3), one cysteine added", "values": [
      {"measurement": "secondary structure (far-UV CD spectra)", "setting": "[2]", "result": "unfolded"},
      {"measurement": "solubility", "setting": "Solubility observation", "result": "significant decreased solubility and precipitation"}
    ]},
    {"molecule": "N-terminal peptide: synthetic peptide comprising the complete N-terminal calcium-binding domain of Phl p 7 (SEQ ID NO:2), one cysteine added", "values": [
      {"measurement": "secondary structure (far-UV CD spectra)", "setting": "[2]", "result": "random coil secondary structure"}
    ]},
    {"molecule": "B1", "values": [
      {"measurement": "secondary structure (far-UV CD spectra)", "setting": "[2]", "result": "significant larger α-helical signal"},
      {"measurement": "concentration of maximum histamine release", "setting": "[3]", "result": "10^−4 μg/ml"},
      {"measurement": "immediate type skin reactions", "setting": "[1]; skin prick test, 2 μg/ml", "result": "induced immediate type skin reactions"},
      {"measurement": "mean wheal diameter", "setting": "[1]; skin prick test", "result": 9.3, "unit": "mm"},
      {"measurement": "skin reactions in the non-allergic individual", "setting": "[1]; skin prick test", "result": "no reactions"}
    ]},
    {"molecule": "B2", "values": [
      {"measurement": "patients whose serum IgE bound (dot blot)", "setting": "[4]", "result": "six out of ten"}
    ]},
    {"molecule": "B3", "values": [
      {"measurement": "patients whose serum IgE bound (dot blot)", "setting": "[4]", "result": "five out of ten"}
    ]},
    {"molecule": "B4", "values": [
      {"measurement": "secondary structure (far-UV CD spectra)", "setting": "[2]", "result": "increasing portion of random-coil secondary structure"},
      {"measurement": "decrease of CD signal in contrast to normalized spectrum of rPhl p 7", "setting": "[2]; second analysis comparing Phl p 7 and point mutant-4", "result": "approximately 20%"},
      {"measurement": "IgE binding capacity compared to Phl p 7 (western blot)", "setting": "[5]", "result": "strongest reduction"},
      {"measurement": "patients whose serum IgE bound (dot blot)", "setting": "[4]", "result": "four out of ten"},
      {"measurement": "IgE binding capacity (dot blot)", "setting": "[4]; compared with Phl p 7 wild type", "result": "strongest reduction of IgE binding capacity"},
      {"measurement": "concentration of maximum histamine release", "setting": "[3]", "result": "10^−3 μg/ml"},
      {"measurement": "induction of histamine release", "setting": "[3]; increasing concentrations", "result": "dose-dependent release of histamine"},
      {"measurement": "mean wheal diameter", "setting": "[1]; skin prick test", "result": 7, "unit": "mm"},
      {"measurement": "immediate skin reactions compared with Phl p 7 wild type", "setting": "[1]; skin prick test, allergic patients", "result": "moderately weaker"},
      {"measurement": "skin reactions in the non-allergic individual", "setting": "[1]; skin prick test", "result": "no reactions"},
      {"measurement": "induction of IgG anti-Phl p 7 antibody response", "setting": "rPhl p 7 wild type", "result": "induced IgG anti-Phl p 7 antibody responses"},
      {"measurement": "recognition of cross-reactive allergen Aln g 4 by rabbit antiserum raised against the immunogen", "setting": "recombinant Aln g 4", "result": "recognized the Phl p 7-cross-reactive allergen, Aln g 4"}
    ]}
  ]
}
